Assay in all cases: co-IP; LUMIER: Renilla luciferase-Smad3 and Flag-tagged partner co-expressed with constitutively active Alk5 in HEK-293; Flag protein captured from cleared lysate (TNE: 10 mM Tris-HCl pH 7.8, 150 mM NaCl, 1 mM EDTA, 1% Igepal CA-630) on anti-Flag 96-well plates, 2 h at 4 °C; co-precipitated Renilla luciferase activity, TrxGA background subtracted, percent of wild-type Smad3
Common to all, as to conditions: partners not purified

In one assay the target is T1, Flag-Smad3, full length (UniProt P84022 1-425).
T1 construct: Smad3; plasmid pCMV5-Flag-Smad3 (from J. Massagué); bait for Smad3-Smad3 association; also called Smad3 FL; source: HEK-293, transfected together with constitutively active Alk5, in lysate

The target of the next assay is T2, Flag-SARA, full length (UniProt O95405 1-1425).
T2 construct: SARA; plasmid pCMV5b-Flag-SARA; also called SARA FL; source: HEK-293, transfected, in lysate
T2 sequence (looked up): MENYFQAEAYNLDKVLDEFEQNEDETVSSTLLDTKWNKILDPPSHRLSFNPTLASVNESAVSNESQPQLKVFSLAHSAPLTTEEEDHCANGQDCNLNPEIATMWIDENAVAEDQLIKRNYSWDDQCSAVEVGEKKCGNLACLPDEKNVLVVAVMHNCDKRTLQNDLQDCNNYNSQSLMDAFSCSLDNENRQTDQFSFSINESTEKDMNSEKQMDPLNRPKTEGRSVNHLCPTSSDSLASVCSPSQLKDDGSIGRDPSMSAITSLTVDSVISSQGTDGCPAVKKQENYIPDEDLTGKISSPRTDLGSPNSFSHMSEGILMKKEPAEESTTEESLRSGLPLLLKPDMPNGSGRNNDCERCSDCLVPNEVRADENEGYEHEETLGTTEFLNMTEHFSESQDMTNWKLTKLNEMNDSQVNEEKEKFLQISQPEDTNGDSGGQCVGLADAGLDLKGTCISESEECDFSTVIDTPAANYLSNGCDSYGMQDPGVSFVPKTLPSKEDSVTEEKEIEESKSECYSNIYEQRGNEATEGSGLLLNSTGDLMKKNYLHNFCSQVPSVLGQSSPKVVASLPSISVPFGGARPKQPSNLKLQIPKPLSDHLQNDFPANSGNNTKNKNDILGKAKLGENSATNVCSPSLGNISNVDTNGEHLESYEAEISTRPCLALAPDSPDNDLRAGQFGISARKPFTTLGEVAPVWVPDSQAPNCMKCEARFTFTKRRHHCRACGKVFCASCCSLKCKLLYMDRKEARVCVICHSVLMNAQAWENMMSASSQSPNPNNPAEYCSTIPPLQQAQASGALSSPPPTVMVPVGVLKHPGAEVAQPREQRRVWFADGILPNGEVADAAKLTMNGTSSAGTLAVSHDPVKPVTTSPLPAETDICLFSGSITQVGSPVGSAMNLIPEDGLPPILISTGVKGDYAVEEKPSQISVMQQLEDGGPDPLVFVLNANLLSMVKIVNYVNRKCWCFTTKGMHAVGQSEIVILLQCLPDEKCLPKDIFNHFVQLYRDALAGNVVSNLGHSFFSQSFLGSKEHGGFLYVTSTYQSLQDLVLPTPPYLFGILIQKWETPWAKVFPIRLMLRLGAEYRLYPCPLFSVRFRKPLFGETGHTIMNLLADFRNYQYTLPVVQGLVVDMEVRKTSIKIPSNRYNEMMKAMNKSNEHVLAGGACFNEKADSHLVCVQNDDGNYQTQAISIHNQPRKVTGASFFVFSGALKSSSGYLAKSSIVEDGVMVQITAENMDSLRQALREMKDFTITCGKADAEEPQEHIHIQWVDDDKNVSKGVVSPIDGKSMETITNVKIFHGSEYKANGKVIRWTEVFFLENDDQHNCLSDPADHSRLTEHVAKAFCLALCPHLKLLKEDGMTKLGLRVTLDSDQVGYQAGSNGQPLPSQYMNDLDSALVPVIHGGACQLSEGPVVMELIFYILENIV

Assay [1] has as its target T3, Ski Smad-binding domain (amino acids 2–56) on the 3xFlag-thioredoxin scaffold (UniProt P12755 2-56).
T3 construct: Ski, amino acids 2–56; cloned into the unique RsrII site of pCI-3xFLAG-Trx; also called Ski aa2–56; TrxSki; source: HEK-293, transfected, in lysate
T3 sequence (looked up): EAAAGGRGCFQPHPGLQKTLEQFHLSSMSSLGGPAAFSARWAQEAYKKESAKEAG

These results are taken from paper PMC3176292, “Mutations in Protein-Binding Hot-Spots on the Hub Protein Smad3 Differentially Affect Its Protein Interactions and Smad3-Regulated Gene Expression” (PLoS ONE, 2011).

B1: Renilla luciferase-Smad3 C338A (natural protein, UniProt P84022 1-425, looked up)
chain: MSSILPFTPPIVKRLLGWKKGEQNGQEEKWCEKAVKSLVKKLKKTGQLDELEKAITTQNVNTKCITIPRSLDGRLQVSHRKGLPHVIYCRLWRWPDLHSHHELRAMELCEFAFNMKKDEVCVNPYHYQRVETPVLPPVLVPRHTEIPAEFPPLDDYSHSIPENTNFPAGIEPQSNIPETPPPGYLSEDGETSDHQMNHSMDAGSPNLSPNPMSPAHNNLDLQPVTYCEPAFWCSISYYELNQRVGETFHASQPSMTVDGFTDPSNSERFCLGLLSNVNRNAAVELTRRHIGRGVRLYYIGGEVFAECLSDSAIFVQSPNCNQRYGWHPATVCKIPPGANLKIFNNQEFAALLAQSVNQGFEAVYQLTRMCTIRMSFVKGWGAEYRRQTVTSTPCWIELHLNGPLQWLDKVLTQMGSPSIRCSSVS
notes: Smad3; source: HEK-293, transfected together with constitutively active Alk5, in lysate
In the case of B1, the “percent binding relative to wild-type Smad3” value with Flag-Smad3, full length stood at 100%; in the assay with Flag-SARA, full length, 136%; in assay [1] it was 188%.

B2: Renilla luciferase-Smad3 Y297A (natural protein, UniProt P84022 1-425, looked up)
chain: MSSILPFTPPIVKRLLGWKKGEQNGQEEKWCEKAVKSLVKKLKKTGQLDELEKAITTQNVNTKCITIPRSLDGRLQVSHRKGLPHVIYCRLWRWPDLHSHHELRAMELCEFAFNMKKDEVCVNPYHYQRVETPVLPPVLVPRHTEIPAEFPPLDDYSHSIPENTNFPAGIEPQSNIPETPPPGYLSEDGETSDHQMNHSMDAGSPNLSPNPMSPAHNNLDLQPVTYCEPAFWCSISYYELNQRVGETFHASQPSMTVDGFTDPSNSERFCLGLLSNVNRNAAVELTRRHIGRGVRLAYIGGEVFAECLSDSAIFVQSPNCNQRYGWHPATVCKIPPGCNLKIFNNQEFAALLAQSVNQGFEAVYQLTRMCTIRMSFVKGWGAEYRRQTVTSTPCWIELHLNGPLQWLDKVLTQMGSPSIRCSSVS
notes: as for B1
For B2, the “percent binding relative to wild-type Smad3” value with Flag-Smad3, full length is 82%; with Flag-SARA, full length it was 38%.

B3: Renilla luciferase-Smad3 K341A (natural protein, UniProt P84022 1-425, looked up)
chain: MSSILPFTPPIVKRLLGWKKGEQNGQEEKWCEKAVKSLVKKLKKTGQLDELEKAITTQNVNTKCITIPRSLDGRLQVSHRKGLPHVIYCRLWRWPDLHSHHELRAMELCEFAFNMKKDEVCVNPYHYQRVETPVLPPVLVPRHTEIPAEFPPLDDYSHSIPENTNFPAGIEPQSNIPETPPPGYLSEDGETSDHQMNHSMDAGSPNLSPNPMSPAHNNLDLQPVTYCEPAFWCSISYYELNQRVGETFHASQPSMTVDGFTDPSNSERFCLGLLSNVNRNAAVELTRRHIGRGVRLYYIGGEVFAECLSDSAIFVQSPNCNQRYGWHPATVCKIPPGCNLAIFNNQEFAALLAQSVNQGFEAVYQLTRMCTIRMSFVKGWGAEYRRQTVTSTPCWIELHLNGPLQWLDKVLTQMGSPSIRCSSVS
notes: as for B1
On to B3, for which the “percent binding relative to wild-type Smad3” value came out at 95% in the assay with Flag-Smad3, full length; 29% in the assay with Flag-SARA, full length; 27% in assay [1].

B4: Renilla luciferase-Smad3 Q322A/Y324A (natural protein, UniProt P84022 1-425, looked up)
chain: MSSILPFTPPIVKRLLGWKKGEQNGQEEKWCEKAVKSLVKKLKKTGQLDELEKAITTQNVNTKCITIPRSLDGRLQVSHRKGLPHVIYCRLWRWPDLHSHHELRAMELCEFAFNMKKDEVCVNPYHYQRVETPVLPPVLVPRHTEIPAEFPPLDDYSHSIPENTNFPAGIEPQSNIPETPPPGYLSEDGETSDHQMNHSMDAGSPNLSPNPMSPAHNNLDLQPVTYCEPAFWCSISYYELNQRVGETFHASQPSMTVDGFTDPSNSERFCLGLLSNVNRNAAVELTRRHIGRGVRLYYIGGEVFAECLSDSAIFVQSPNCNARAGWHPATVCKIPPGCNLKIFNNQEFAALLAQSVNQGFEAVYQLTRMCTIRMSFVKGWGAEYRRQTVTSTPCWIELHLNGPLQWLDKVLTQMGSPSIRCSSVS
notes: as for B1
In the case of B4, the “percent binding relative to wild-type Smad3” value was 143% with Flag-Smad3, full length; 12% with Flag-SARA, full length; 237% in assay [1].

B5: Renilla luciferase-Smad3 E267A (natural protein, UniProt P84022 1-425, looked up)
chain: MSSILPFTPPIVKRLLGWKKGEQNGQEEKWCEKAVKSLVKKLKKTGQLDELEKAITTQNVNTKCITIPRSLDGRLQVSHRKGLPHVIYCRLWRWPDLHSHHELRAMELCEFAFNMKKDEVCVNPYHYQRVETPVLPPVLVPRHTEIPAEFPPLDDYSHSIPENTNFPAGIEPQSNIPETPPPGYLSEDGETSDHQMNHSMDAGSPNLSPNPMSPAHNNLDLQPVTYCEPAFWCSISYYELNQRVGETFHASQPSMTVDGFTDPSNSARFCLGLLSNVNRNAAVELTRRHIGRGVRLYYIGGEVFAECLSDSAIFVQSPNCNQRYGWHPATVCKIPPGCNLKIFNNQEFAALLAQSVNQGFEAVYQLTRMCTIRMSFVKGWGAEYRRQTVTSTPCWIELHLNGPLQWLDKVLTQMGSPSIRCSSVS
notes: as for B1
For B5, the “percent binding relative to wild-type Smad3” value with Flag-Smad3, full length turned out to be 222%; with Flag-SARA, full length, 82%; in assay [1], 1150%.

B6: Renilla luciferase-Smad3 P335A/P336A (natural protein, UniProt P84022 1-425, looked up)
chain: MSSILPFTPPIVKRLLGWKKGEQNGQEEKWCEKAVKSLVKKLKKTGQLDELEKAITTQNVNTKCITIPRSLDGRLQVSHRKGLPHVIYCRLWRWPDLHSHHELRAMELCEFAFNMKKDEVCVNPYHYQRVETPVLPPVLVPRHTEIPAEFPPLDDYSHSIPENTNFPAGIEPQSNIPETPPPGYLSEDGETSDHQMNHSMDAGSPNLSPNPMSPAHNNLDLQPVTYCEPAFWCSISYYELNQRVGETFHASQPSMTVDGFTDPSNSERFCLGLLSNVNRNAAVELTRRHIGRGVRLYYIGGEVFAECLSDSAIFVQSPNCNQRYGWHPATVCKIAAGCNLKIFNNQEFAALLAQSVNQGFEAVYQLTRMCTIRMSFVKGWGAEYRRQTVTSTPCWIELHLNGPLQWLDKVLTQMGSPSIRCSSVS
notes: as for B1
As for B6, the “percent binding relative to wild-type Smad3” value in the assay with Flag-Smad3, full length came to 109%; with Flag-SARA, full length it was 16%; in assay [1], 356%.

B7: Renilla luciferase-Smad3 L340A (natural protein, UniProt P84022 1-425, looked up)
chain: MSSILPFTPPIVKRLLGWKKGEQNGQEEKWCEKAVKSLVKKLKKTGQLDELEKAITTQNVNTKCITIPRSLDGRLQVSHRKGLPHVIYCRLWRWPDLHSHHELRAMELCEFAFNMKKDEVCVNPYHYQRVETPVLPPVLVPRHTEIPAEFPPLDDYSHSIPENTNFPAGIEPQSNIPETPPPGYLSEDGETSDHQMNHSMDAGSPNLSPNPMSPAHNNLDLQPVTYCEPAFWCSISYYELNQRVGETFHASQPSMTVDGFTDPSNSERFCLGLLSNVNRNAAVELTRRHIGRGVRLYYIGGEVFAECLSDSAIFVQSPNCNQRYGWHPATVCKIPPGCNAKIFNNQEFAALLAQSVNQGFEAVYQLTRMCTIRMSFVKGWGAEYRRQTVTSTPCWIELHLNGPLQWLDKVLTQMGSPSIRCSSVS
notes: as for B1
In the case of B7, the “percent binding relative to wild-type Smad3” value is 99% with Flag-Smad3, full length; 58% with Flag-SARA, full length; 194% in assay [1].
